Test results: patent US20140242093A1, “METHODS AND COMPOSITIONS FOR MODULATING THE INNATE IMMUNE RESPONSE AND/OR MYOGENESIS IN A MAMMALIAN SUBJECT” (FRED HUTCHINSON CANCER RESEARCH CENTER, priority 2011, published 2014)

System: control human primary myoblasts
Assay: Expression microarray of primary myoblasts transduced with lentivirus carrying DUX4-fl, DUX4-s or GFP
Experimental: Primary human myoblasts were collected and cultured as previously described (Snider et al., 2010). Primary myoblasts were maintained at or below 70% confluency for proliferation. For differentiation, cells were allowed to reach 95-100% confluency in growth medium. Once confluency was reached, the cells were changed to differentiation medium (F10 media supplemented with 1% horse serum, 10 μg/mL insulin, and 10 μg/mL transferrin, penicillin/streptomycin) and maintained for 4 days. Human RD cells were grown in DMEM in 10% bovine calf serum (Hyclone) and penicillin/streptomycin. The primary myoblasts were transduced with lentivirus carrying DUX-fl, DUX4- or GFP (MOI=15).
Expression microarrays were performed on the transduced cells at 24 hours after transduction as follows. […] Samples were analyzed by Illumina Human Whole Genome microarrays. Probe intensities were corrected, normalized, and summarized by the Lumi package of Bioconductor (Du et al., 2008). Differentially expressed genes were identified by the LIMMA package of Bioconductor (Wettenhall and Smyth, 2004). Gene set enrichment analysis (GSEA) was performed using the Bioconductor GOstats package (Falcon and Gentleman, 2007).

B1: DUX4-s: short splice form of DUX4 (SEQ ID NO:112), keeps the double-homeobox domains, lacks the C-terminal activation domain (protein, listed as Homo sapiens)
chain: MALPTPSDSTLPAEARGRGRRRRLVWTPSQSEALRACFERNPYPGIATRERLAQAIGIPEPRVQIWFQNERSRQLRQHRRESRPWPGRRGPPEGRRKRTAVTGSQTALLLRAFEKDRFPGIAAREELARETGLPESRIQIWFQNRRARHPGQGGRAPAQV
Refseq NM_152608.3
  C1orf55 expression fc: −0.3632
Refseq NM_152649.1, cultured human skeletal muscle
  MLKL expression fc: 1.457
Refseq NM_152677.1
  ZSCAN4 expression fc: 0.04366
Refseq NM_152703.2, cultured human skeletal muscle
  SAMD9L expression fc: 1.257
Refseq NM_152718.2, cultured human skeletal muscle
  VWCE expression fc: −0.1213
Refseq NM_152783.3
  fc of D2HGDH (expression array): −0.3982
Refseq NM_152877.1
  FAS fc: 0.1452
Refseq NM_153000.3, cultured human skeletal muscle
  APCDD1 expression fc: −0.4301
Refseq NM_153321.1
  PMP22 fc: 0.2667
Refseq NM_153449.2
  SLC2A14 expression fc: 0.2472
Refseq NM_153611.3, cultured human skeletal muscle
  CYBASC3 expression fc: −0.4218
Refseq NM_170699.2
  GPBAR1 expression fc: −0.1298
Refseq NM_170722.1
  NLRX1 fc: −0.1409
Refseq NM_172002.3
  fc of HSCB (expression array): 0.1735
Refseq NM_172070.2
  fc of ZNF650 (expression array): 0.6904
Refseq NM_172374.1
  fc of IL4I1 (expression array): 1.769
Refseq NM_173484.3
  KLF17 expression fc: 0.08045
Refseq NM_173587.2
  fc of RCOR2 (expression array): −0.1949
Refseq NM_173674.1
  fc of DCBLD1 (expression array): 1.594
Refseq NM_173701.1, cultured human skeletal muscle
  WARS expression fc: 1.715
Refseq NM_173824.2
  fc of C3orf38 (expression array): 1.033
Refseq NM_174916.1
  fc of UBR1 (expression array): 1.111
Refseq NM_174921.1
  fc of C4orf34 (expression array): 0.6119
Refseq NM_174938.3
  FRMD3 fc: −0.2907
Refseq NM_175617.3, cultured human skeletal muscle
  MT1E expression fc: 0.1289
Refseq NM_175852.3
  TXLNA fc: −0.1621
Refseq NM_176870.2, cultured human skeletal muscle
  MT1M expression fc: 1.185
Refseq NM_176895.1
  PPAP2A fc: 0.545
Refseq NM_177436.1
  CSE1L expression fc: 0.07287
Refseq NM_177968.2
  PPM1B expression fc: −0.0342
Refseq NM_178006.1
  fc of STARD13 (expression array): −0.8963
Refseq NM_178314.2
  RILPL1 fc: 0.6233
Refseq NM_181054.1
  HIF1A fc: 0.4209
Refseq NM_181353.1
  ID1 fc: 0.7329
Refseq NM_181435.4
  C1QTNF3 expression fc: −0.02264
Refseq NM_181677.1
  PPP2R2B expression fc: −0.1091
Refseq NM_181876.2
  PPP2R2C fc: −0.2308
Refseq NM_182557.2
  BCL9L fc: 0.7326
Refseq NM_182972.2
  fc of IRF2BP2 (expression array): −0.806
Refseq NM_182985.3
  fc of TRIM69 (expression array): 0.2639
Refseq NM_184086.1
  fc of TRIM55 (expression array): 0.1967
Refseq NM_184234.1
  RBM39 expression fc: 0.263
Refseq NM_194281.3
  INO80C expression fc: −0.1128
Refseq NM_194285.2
  SPTY2D1 expression fc: −0.2916
Refseq NM_194431.1
  fc of RNASE4 (expression array): −0.1107
Refseq NM_197966.1
  BID fc: −0.1675
Refseq NM_198055.1
  fc of MZF1 (expression array): 0.05558
Refseq NM_198150.1
  fc of ARSK (expression array): 1.03
Refseq NM_198291.1
  fc of SRC (expression array): 0.0569
Refseq NM_198450.3
  fc of APOOL (expression array): 1.369
Refseq NM_198459.2
  DENND2C expression fc: −0.2684
Refseq NM_198479.2
  TPRX1 expression fc: −0.05019
Refseq NM_198576.2, cultured human skeletal muscle
  AGRN expression fc: 0.3808
Refseq NM_198594.1, cultured human skeletal muscle
  C1QTNF1 expression fc: 0.7696
Refseq NM_198833.1
  fc of SERPINB8 (expression array): 1.016
Refseq NM_198925.1, cultured human skeletal muscle
  SEMA4B expression fc: 0.1542
Refseq NM_199001.1, cultured human skeletal muscle
  C9orf169 expression fc: −0.05213
Refseq NM_199048.1
  T1560 expression fc: 0.02012
Refseq NM_199139.1, cultured human skeletal muscle
  XAF1 expression fc: 0.6222
Refseq NM_199161.1, cultured human skeletal muscle
  SAA1 expression fc: 0.2569
Refseq NM_199181.2
  C20orf117 fc: −0.5322
Refseq NM_199203.1
  fc of TMEM189-UBE2V1 (expression array): 0.06378
Refseq NM_201554.1, cultured human skeletal muscle
  DGKA expression fc: 0.1014
Refseq NM_201599.1
  fc of ZMYM3 (expression array): −0.01297
Refseq NM_203301.1
  FBXO33 expression fc: 0.2162
Refseq NM_203446.1
  SYNJ1 expression fc: −0.07515
Refseq NM_207315.2
  fc of CMPK2 (expression array): 1.351
Refseq NM_207352.2
  CYP4V2 fc: −0.4989
Refseq NM_207380.1
  fc of C15orf52 (expression array): −0.2956
Refseq NM_207465.1
  FLJ45337 expression fc: −0.2461
Refseq NM_001001323.1
  ATP2B1 fc: −0.7039
Refseq NM_001001692.1
  FLJ45139 expression fc: 0.1009
Refseq NM_001001821.1
  OR2T34 expression fc: −0.05408
Refseq NM_001001995.1
  fc of GPM6B (expression array): −1.119
Refseq NM_001002006.1
  NT5C1B expression fc: −0.03655
Refseq NM_001002010.1
  fc of NT5C3 (expression array): 1.882
Refseq NM_001002814.1
  RAB11FIP1 expression fc: −0.4765
Refseq NM_001003679.1
  fc of LEPR (expression array): −0.5494
Refseq NM_001004328.1
  ZNF705A expression fc: −0.06059
Refseq NM_001005464.2
  HIST2H3A expression fc: −0.05203
Refseq NM_001005742.1
  GBA fc: 0.289
Refseq NM_001006610.1
  SIAH1 expression fc: −0.0793
Refseq NM_001008213.1
  OPTN fc: −0.5727
Refseq NM_001008539.2, cultured human skeletal muscle
  SLC7A2 expression fc: −0.1055
Refseq NM_001008540.1
  CXCR4 expression fc: −0.0521
Refseq NM_001009566.1
  fc of CLSTN1 (expression array): −0.2768
Refseq NM_001009611.1
  PRAMEF4 expression fc: 0.0423
Refseq NM_001010876.1
  C6orf191 expression fc: −0.05752
Refseq NM_001010889.2
  PRAMEF6 expression fc: −0.06189
Refseq NM_001010890.1
  PRAMEF9 expression fc: −0.07265
Refseq NM_001012276.1
  PRAMEF8 expression fc: 0.1662
Refseq NM_001012277.1
  PRAMEF7 expression fc: 0.106
Refseq NM_001012643.2
  fc of MYPOP (expression array): −0.03552
Refseq NM_001013407.1
  PRAMEF5 expression fc: 0.1054
Refseq NM_001013631.1
  HNRNPCL1 expression fc: −0.1035
Refseq NM_001013734.2
  RFPL4B expression fc: −0.1031
Refseq NM_001014440.2
  ODF3B fc: 0.4296
Refseq NM_001015882.2
  DNAJC25 expression fc: −0.5072
Refseq NM_001017425.2
  KCNK2 fc: 0.2137
Refseq NM_001017928.2
  CCDC58 expression fc: 0.07678
Refseq NM_001017971.1
  fc of ATP6AP1L (expression array): 0.02803
Refseq NM_001017995.1
  SH3PXD2B fc: −0.01555
Refseq NM_001018011.1, cultured human skeletal muscle
  ZBTB16 expression fc: 0.4921
Refseq NM_001018069.1
  fc of SERBP1 (expression array): −1.179
Refseq NM_001024466.1, cultured human skeletal muscle
  SOD2 expression fc: 1.532
Refseq NM_001024630.2
  fc of RUNX2 (expression array): 0.05524
Refseq NM_001024646.1
  CLK1 expression fc: 0.0752
Refseq NM_001024847.1
  fc of TGFBR2 (expression array): 0.1743
Refseq NM_001025235.1
  TSPAN4 fc: −0.1169
Refseq NM_001025603.1
  fc of RFX5 (expression array): −0.06023
Refseq NM_001032290.1
  PSRC1 fc: −0.4871
Refseq NM_001032409.1, cultured human skeletal muscle
  OAS1 expression fc: 1.453
Refseq NM_001033113.1
  ENTPD8 expression fc: 0.03523
Refseq NM_001033566.1
  RHOT1 fc: 0.3308
Refseq NM_001037333.1
  CYFIP2 fc: −0.633
Refseq NM_001037537.1
  fc of PHYH (expression array): −0.5757
Refseq NM_001039348.1
  fc of EFEMP1 (expression array): −0.2077
Refseq NM_001039361.1
  PRAMEF10 expression fc: 0.008756
Refseq NM_001039481.1
  ETNK1 expression fc: 0.06444
Refseq NM_001039615.1
  LOC440053 expression fc: −0.09982
Refseq NM_001039771.2
  CBLN3 fc: 0.1543
Refseq NM_001040708.1
  HEY1 expression fc: −0.04271
Refseq NM_001048201.1
  fc of UHRF1 (expression array): −1.034
Refseq NM_001048223.1
  DBNDD2 expression fc: 0.2257
Refseq NM_001077261.1
  NCOR2 fc: −0.2241
Refseq NM_001077493.1
  fc of NFKB2 (expression array): 0.2202
Refseq NM_001078174.1
  fc of SLC29A1 (expression array): −1.034
Refseq NM_001080463.1
  DYNC2H1 expression fc: 0.04558
Refseq NM_001080830.1
  PRAMEF12 expression fc: 0.1269
Refseq NM_001080998.1
  FRG2B expression fc: 0.1315
Refseq NM_001081551.2
  DEFB103A expression fc: 0.06581
Refseq NM_001081559.1
  CPSF4 fc: −0.2674
Refseq NM_001083112.1
  fc of GPD2 (expression array): 1.197
Refseq NM_001098199.1
  fc of GPR1 (expression array): 0.2201
Refseq NM_001098479.1, cultured human skeletal muscle
  HLA-F expression fc: 0.9368
Refseq NM_001098535.1
  RFPL3 expression fc: −0.06033
Refseq NM_001098538.1
  PRR4 expression fc: 0.1606
Refseq NM_001099684.1
  FAM156B fc: −0.1712
